Laboratory results taken from US20240116985A1 (published 2024).
Starred links: 1 amine or outer side, 2 acyl side, 3 side chain; linkers in the order of their positions; H or OH if unused. Positions of bridges follow the written chain, without caps; N, C: chain ends. Non-standard residues stand in square brackets, D forms with d. Primed or numbered codes have the meaning given here. *: point of attachment. (MeMorphBz)GAbu = (S)-2-amino-4-(N-(carboxymethyl)-4-(morpholinomethyl)benzamido)butanoic acid, O=C(c1ccc(CN2CCOCC2)cc1)N(CC[C@H](N[*:1])C(=O)[*:2])CC(=O)[*:3]; (4AcMePip)GAbu = (S)-2-amino-4-(N-(carboxymethyl)-1-methylpiperidine-4-carboxamido)butanoic acid, CN1CCC(C(=O)N(CC[C@H](N[*:1])C(=O)[*:2])CC(=O)[*:3])CC1; (Pfbn)GA = (S)-2-amino-3-((carboxymethyl)((perfluorophenyl)methyl)amino)propanoic acid, O=C([C@H](CN(CC(=O)[*:3])Cc1c(F)c(F)c(F)c(F)c1F)N[*:1])[*:2]; PyrS2″ = (S)-3-amino-1-((pent-4-en-1-yloxy)carbonyl)pyrrolidine-3-carboxylic acid (stapling residue), C=CCCCOC(=O)N1CC[C@@](N[*:1])(C(=O)[*:2])C1; (Me2NPr)GAbu = (S)-2-amino-4-(N-(carboxymethyl)-3-(dimethylamino)propanamido)butanoic acid, CN(C)CCC(=O)N(CC[C@H](N[*:1])C(=O)[*:2])CC(=O)[*:3]; B5(16) = 2-amino-2-(pent-4-en-1-yl)hept-6-enoic acid = 2,2-bis(4-pentenyl)glycine (stitching residue), C=CCCCC(CCCC=C)(N[*:1])C(=O)[*:2]; (Tfp)GA″ = (S)-2-amino-3-((carboxymethyl)(3,3,3-trifluoropropyl)amino)propanoic acid, O=C([C@H](CN(CCC(F)(F)F)CC(=O)[*:3])N[*:1])[*:2]; (Tfb)GA = (S)-2-amino-3-((carboxymethyl)(4,4,4-trifluorobutyl)amino)propanoic acid, O=C([C@H](CN(CCCC(F)(F)F)CC(=O)[*:3])N[*:1])[*:2]; PyrS2 = (S)-3-amino-1-((pent-4-en-1-yloxy)carbonyl)pyrrolidine-3-carboxylic acid, C=CCCCOC(=O)N1CC[C@@](N[*:1])(C(=O)[*:2])C1; (Pic)GAbu = (S)-2-amino-4-(N-(carboxymethyl)picolinamido)butanoic acid, O=C(c1ccccn1)N(CC[C@H](N[*:1])C(=O)[*:2])CC(=O)[*:3]; (Bn)GA″ = [Bn]GA: (S)-2-amino-3-(benzyl(carboxymethyl)amino)propanoic acid, O=C([C@H](CN(CC(=O)[*:3])Cc1ccccc1)N[*:1])[*:2]; (Bn)GA = (S)-2-amino-3-(benzyl(carboxymethyl)amino)propanoic acid, O=C([C@H](CN(CC(=O)[*:3])Cc1ccccc1)N[*:1])[*:2]; B5(22) = 2-amino-2-(pent-4-en-1-yl)hept-6-enoic acid (two alkene side chains), C=CCCCC(CCCC=C)(N[*:1])C(=O)[*:2]; GAbu = (S)-2-amino-4-((carboxymethyl)amino)butanoic acid, O=C([C@H](CCNCC(=O)[*:3])N[*:1])[*:2]; B5(3) = 2,2-bis(4-pentenyl)glycine (stitching residue), C=CCCCC(CCCC=C)(N[*:1])C(=O)[*:2]; Acetyl(4-Me-piperazin-1-yl) = CN1CCN(CC(=O)*)CC1; Bta = N[C@@H](Cc1csc2ccccc12)C(=O)O; αAllylPro = C=CC[C@@]1(C(=O)O)CCCN1; tBuAla = CC(C)(C)C[C@H](N)C(=O)O; 3Thi = N[C@@H](Cc1ccsc1)C(=O)O; S8 = C=CCCCCCC[C@](C)(N)C(=O)O; PyrS2(4) = not defined here

T1: full-length beta-Catenin (Uniprot ID P35222) (Homo sapiens (Human), UniProt P35222 1-781)
T1 construct: Said to be full-length in the fluorescence polarization assay; also called bCat; B-Catenin
T1 sequence: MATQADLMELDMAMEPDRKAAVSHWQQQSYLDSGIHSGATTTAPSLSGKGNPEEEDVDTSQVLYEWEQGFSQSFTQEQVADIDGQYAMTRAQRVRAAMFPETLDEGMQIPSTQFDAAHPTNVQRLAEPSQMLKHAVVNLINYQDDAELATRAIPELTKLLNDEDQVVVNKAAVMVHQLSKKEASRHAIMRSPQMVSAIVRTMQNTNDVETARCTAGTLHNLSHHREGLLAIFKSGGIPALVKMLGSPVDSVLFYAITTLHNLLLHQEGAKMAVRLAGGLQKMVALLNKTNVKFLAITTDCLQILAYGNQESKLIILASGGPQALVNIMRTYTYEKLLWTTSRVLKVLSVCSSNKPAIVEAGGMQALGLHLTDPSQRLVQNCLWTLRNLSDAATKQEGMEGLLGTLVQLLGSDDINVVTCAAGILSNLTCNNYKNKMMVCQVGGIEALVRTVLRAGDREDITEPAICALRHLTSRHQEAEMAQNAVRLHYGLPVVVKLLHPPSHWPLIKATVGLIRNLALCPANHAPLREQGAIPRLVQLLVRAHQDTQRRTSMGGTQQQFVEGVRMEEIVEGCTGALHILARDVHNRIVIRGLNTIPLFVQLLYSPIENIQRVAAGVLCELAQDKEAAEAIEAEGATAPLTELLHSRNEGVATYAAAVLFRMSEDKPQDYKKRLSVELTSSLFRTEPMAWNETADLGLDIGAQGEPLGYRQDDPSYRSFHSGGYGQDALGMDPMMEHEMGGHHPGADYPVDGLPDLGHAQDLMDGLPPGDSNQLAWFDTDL

T2: B-cat-Halo (UniProt P35222 1-781)
T2 sequence (looked up): T1 sequence

T3: B-cat-Halo (UniProt P35222 1-781)
T3 sequence (looked up): T1 sequence

B1: I-635 (peptide)
peptide: Ac-[αAllylPro]DI[B5(16)]DEAAFQ[S8]F[Bta]F-NH2
modifications: staple 1-4, 4-11
notes: Stapled peptide
B2: I-1635 (peptide)
peptide: Ac-[αAllylPro]D[tBuAla][B5(3)]D[(Bn)GA]AAFN[PyrS2][3Thi][Bta]Q-NH2
modifications: staple 1-4, 4-11
B3: I-2250 (peptide)
peptide: Ac-[αAllylPro]D[tBuAla][B5(22)]D[GAbu](Acetyl(4-Me-piperazin-1-yl))AAFL[PyrS2][3Thi][Bta]Q-NH2
modifications: staple 1-4, 4-11
B4: I-2247 (peptide)
peptide: Ac-[αAllylPro]D[tBuAla][B5(22)]D[(Pic)GAbu]AAFL[PyrS2][3Thi][Bta]Q-NH2
modifications: staple 1-4, 4-11
B5: I-618 (peptide)
peptide: XDLXDEAAFTXFXH
modifications: not fully specified; Ac-PL3-Asp-Leu-B5-Asp-Glu-Ala-Ala-Phe-Thr-S8-Phe-BztA-His-NH2; N-terminal acetyl, C-terminal amide; non-natural PL3 (1), B5 (4), S8 (11), BztA (13); staples PL3-B5 and B5-S8 by olefin metathesis
notes: Stapled peptide; Later-eluting staple isomer composition
B6: I-1630 (peptide)
peptide: Ac-[αAllylPro]D[tBuAla][B5(3)]D[(Bn)GA″]AAFL[PyrS2″][3Thi][Bta]Q-NH2
modifications: staple 1-4, 4-11
B7: I-617 (peptide)
peptide: XDLXDEAAFTXFXH
modifications: not fully specified; Ac-PL3-Asp-Leu-B5-Asp-Glu-Ala-Ala-Phe-Thr-S8-Phe-BztA-His-NH2; N-terminal acetyl, C-terminal amide; non-natural PL3 (1), B5 (4), S8 (11), BztA (13); staples PL3-B5 and B5-S8 by olefin metathesis
notes: Stapled peptide; Earlier-eluting staple isomer composition
B8: I-622 (peptide)
peptide: XDLXDEAAFTXFXQ
modifications: not fully specified; Ac-PL3-Asp-Leu-B5-Asp-Glu-Ala-Ala-Phe-Thr-S8-Phe-BztA-Gln-NH2; N-terminal acetyl, C-terminal amide; non-natural PL3 (1), B5 (4), S8 (11), BztA (13); staples PL3-B5 and B5-S8 by olefin metathesis
notes: as for B7
B9: I-623 (peptide)
peptide: XDLXDEAAFTXFXQ
modifications: not fully specified; Ac-PL3-Asp-Leu-B5-Asp-Glu-Ala-Ala-Phe-Thr-S8-Phe-BztA-Gln-NH2; N-terminal acetyl, C-terminal amide; non-natural PL3 (1), B5 (4), S8 (11), BztA (13); staples PL3-B5 and B5-S8 by olefin metathesis
notes: as for B5
B10: I-2248 (peptide)
peptide: Ac-[αAllylPro]D[tBuAla][B5(22)]D[(MeMorphBz)GAbu]AAFL[PyrS2][3Thi][Bta]Q-NH2
modifications: staple 1-4, 4-11
B11: I-1637 (peptide)
peptide: Ac-[αAllylPro]D[tBuAla][B5(16)]D[(Me)GA]AAFN[PyrS2(4)][3Thi][Bta]Q-NH2
modifications: staple 1-4, 4-11; not fully specified; printed as Ac-PL3-Asp-Npg-B5-Asp-[Me]GA-Ala-Ala-Phe-Asn-PyrS2-3Thi-BztA-Gln-NH2; reading uncertain
B12: I-1634 (peptide)
peptide: Ac-[αAllylPro]D[tBuAla][B5(3)]D[(Tfb)GA]AAFN[PyrS2][3Thi][Bta]Q-NH2
modifications: staple 1-4, 4-11
B13: I-638 (peptide)
peptide: XDIXDEAAFQXFXP
modifications: not fully specified; Ac-PL3-Asp-Ile-B5-Asp-Glu-Ala-Ala-Phe-Gln-S8-Phe-BztA-Pro-NH2; N-terminal acetyl, C-terminal amide; non-natural PL3 (1), B5 (4), S8 (11), BztA (13); staples PL3-B5 and B5-S8 by olefin metathesis
notes: as for B5
B14: I-1633 (peptide)
peptide: Ac-[αAllylPro]D[tBuAla][B5(3)]D[(Tfp)GA″]AAFL[PyrS2][3Thi][Bta]Q-NH2
modifications: staple 1-4, 4-11
B15: I-2245 (peptide)
peptide: Ac-[αAllylPro]D[tBuAla][B5(22)]D[(4AcMePip)GAbu]AAFL[PyrS2][3Thi][Bta]Q-NH2
modifications: staple 1-4, 4-11
B16: I-2244 (peptide)
peptide: Ac-[αAllylPro]D[tBuAla][B5(22)]D[(Me2NPr)GAbu]AAFL[PyrS2][3Thi][Bta]Q-NH2
modifications: staple 1-4, 4-11
B17: I-1638 (peptide)
peptide: Ac-[αAllylPro]D[tBuAla][B5(16)]D[(Pfbn)GA]AAFN[PyrS2][3Thi][Bta]Q-NH2
modifications: staple 1-4, 4-11

What was measured:
[1] = target: T1, full-length beta-Catenin (Uniprot ID …); test: fluorescence polarization competition; peptide titrated against 10 nM full-length beta-catenin + 10 nM 5FAM-TCF4(10-53) probe
Procedure: The plate was incubated protected from light for 60 minutes at 20° C. prior to read. Reads were performed on a CLARIOstar plate reader (BMG Labtech) in duplicate, and data were fitted to a 1:1 binding model with hill slope using an in-house script. All provided concentrations are final concentrations.

[2] = target: T2, B-cat-Halo; test: cell-based or functional assay
[3] = target: T3, B-cat-Halo; test: cell-based or functional assay; remark: listed apart in the source

| Binder | EC50 [1] | NanoBRET Abs IC50 [2] | also measured |
| --- | --- | --- | --- |
| B1 | 0.171 µM | – | – |
| B2 | – | 20.6 µM | – |
| B3 | – | – | NanoBRET Abs IC50 [3]: 36.2 µM |
| B4 | – | – | NanoBRET Abs IC50 [3]: 5.9 µM |
| B5 | 0.135 µM | – | – |
| B6 | – | 5 µM | – |
| B7 | 0.253 µM | – | – |
| B8 | 0.23 µM | – | – |
| B9 | 0.103 µM | – | – |
| B10 | – | – | NanoBRET Abs IC50 [3]: 21.5 µM |
| B11 | – | > 20 µM | – |
| B12 | – | 16.5 µM | – |
| B13 | 3.88 µM | – | – |
| B14 | – | 5.2 µM | – |
| B15 | – | – | NanoBRET Abs IC50 [3]: > 20 µM |
| B16 | – | – | NanoBRET Abs IC50 [3]: 27.4 µM |
| B17 | – | 14.5 µM | – |
